{
  "source": "paper doi:10.1101/153403",
  "key": {"[1]": {"molecular_target": "mature myostatin growth factor dimer (from HRV-3C cleaved proMSTN-3C) (human) (UniProt O14793)", "experiment": "SEC-MALS"}, "[2]": {"molecular_target": "myostatin pro-domain of the HRV-3C cleaved pro-myostatin complex (from proMSTN-3C) (human)", "experiment": "SEC-MALS"}},
  "data": [
    {"substance": "mature myostatin growth factor dimer (from HRV-3C cleaved proMSTN-3C) (from UniProt O14793 267-375) (ligand)", "values": [
      {"measurement": "stoichiometry N", "setting": "[1]", "value": 2},
      {"measurement": "stoichiometry N (pro-domains per mature GF dimer)", "setting": "[2]", "value": 2}
    ]}
  ]
}
